± gives the uncertainty stated by the source.
Test: self-splicing fitness, log relative to wild type (ln ratio); higher = more splicing; Tetrahymena group I intron in knt gene, E. coli kanamycin selection, DiMSum; sequences stand for … in CUCUCU…GGAGGGAAAAGUUAUCAGGCAUGCACCUGGUAGCUAGUCUUUAAACCAAUAGAUUGCAUCGGUUUAAAAGGCAAGACCGUCAAAUUGCGGGAAAGGGGUCAACAGCCGUUCAGUACCAAGUCUCAGGGGAAACUUUGAGAUGGCCUUGCAAAGGGUAUGGUAAUAAGCUGACGGACAUGGUCCUAACCACGCAGCCAAGUCCUAAGUCAACAGAUCUUCUGUUGAUAUGGAUGCAGUUCACAGACUAAAUGUCGGUCGGGGAAGAUGUAUUCUUCUCAUAAGAUAUAGUCGGACCUCUCCUUAAUGGGAGCUAGCGGAUGAAGUGAUGCAACACUGGAGCCGCUGGGAACUAAUUUGUAUGCGAAAGUAUAUUGAUUAGUUUUGGAGUACUCGUGGUCG
Procedure, shortened: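 Six replicate transformations of E. coli BL21(DE3) with a pET-22b(+) library were grown overnight at 37°C or 30°C. The library randomised all eight P1ex-region intron nucleotides, the intron lying in the knt kanamycin-resistance gene, and plates were LB agar with or without 25 μg/mL kanamycin plus 100 μg/mL carbenicillin, 50 μM IPTG and 0.2% rhamnose. Pooled colonies were amplicon-sequenced on an Illumina HiSeq 2500, and fitness is the DiMSum error-weighted combination of wild-type-normalised replicate fold changes, kanamycin versus none.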

Sequence	self-splicing fitness (ln) (30 °C)	self-splicing fitness (ln) (37 °C)
CCAAAGCAAUAUUACGCCUU	-3.62 ± 0.34	-2.88 ± 0.32
CCAAAGCAAUAUUACGCGAG	-2.62 ± 0.098	-1.42 ± 0.094
CCAAAGCAAUAUUACGCGGA	-3.47 ± 0.22	-2.76 ± 0.3
CCAAAGCAAUAUUACGCUGA	-4.48 ± 0.36	-2.75 ± 0.19
CCAAAGCAAUAUUACGCUUG	-3.7 ± 0.18	-2.93 ± 0.2
CCAAAGCAAUAUUACGGCAU	-3.72 ± 0.15	-2.23 ± 0.15
CCAAAGCAAUAUUACGGCUA	-4.05 ± 0.43	-2.28 ± 0.28
CCAAAGCAAUAUUACGGGAG	-3.08 ± 0.18	-2.78 ± 0.26
CCAAAGCAAUAUUACGGGAU	-3.6 ± 0.15	-2.37 ± 0.14
CCAAAGCAAUAUUACGUAAA	-3.24 ± 0.11	-2.07 ± 0.14
CCAAAGCAAUAUUACGUAAU	-4.12 ± 0.18	-2.62 ± 0.19
CCAAAGCAAUAUUACGUAGA	-3.5 ± 0.17	-2.55 ± 0.18
CCAAAGCAAUAUUACGUCAC	-4.61 ± 0.25	-2.14 ± 0.19
CCAAAGCAAUAUUACGUGAC	-4.61 ± 0.32	-2.12 ± 0.26
CCAAAGCAAUAUUACGUGUG	-1.33 ± 0.055	-0.624 ± 0.066
CCAAAGCAAUAUUACGUUAC	-3.75 ± 0.22	-3.75 ± 0.36
CCACAGCAAUAUUACGAAGU	-3.69 ± 0.18	-3.17 ± 0.21
CCACAGCAAUAUUACGAAUG	-1.11 ± 0.061	-0.833 ± 0.071
CCACAGCAAUAUUACGAUAC	-3.48 ± 0.24	-2.16 ± 0.22
CCACAGCAAUAUUACGAUGU	-4.02 ± 0.24	-1.89 ± 0.15
CCACAGCAAUAUUACGAUUG	-1.3 ± 0.05	-0.453 ± 0.067
CCACAGCAAUAUUACGCAUA	-3.46 ± 0.18	-2.42 ± 0.19
CCACAGCAAUAUUACGCCAU	-3.59 ± 0.2	-1.36 ± 0.21
CCACAGCAAUAUUACGCCUG	-1.51 ± 0.092	-0.296 ± 0.1

Sequence	self-splicing fitness (ln) (30 °C)	self-splicing fitness (ln) (37 °C)
CCACAGCAAUAUUACGCGCC	-3.03 ± 0.29	–
CCACAGCAAUAUUACGGAGU	-3.32 ± 0.16	-1.32 ± 0.14
CCACAGCAAUAUUACGGCCG	-0.955 ± 0.073	0.0456 ± 0.1
CCACAGCAAUAUUACGGCCU	-3.94 ± 0.24	-3.38 ± 0.31
CCACAGCAAUAUUACGGGAG	-2.29 ± 0.14	-2.97 ± 0.19
CCACAGCAAUAUUACGGUAA	-3 ± 0.14	-2.2 ± 0.18
CCACAGCAAUAUUACGUACU	-2.01 ± 0.12	-1.93 ± 0.19
CCACAGCAAUAUUACGUAGG	-2.62 ± 0.093	-2.18 ± 0.14
CCACAGCAAUAUUACGUAUU	-3.57 ± 0.15	-2.01 ± 0.14
CCACAGCAAUAUUACGUUAG	-1.56 ± 0.062	-0.188 ± 0.071
CCACAGCAAUAUUACGUUUU	-3.73 ± 0.16	-3.7 ± 0.22
CCAGAGCAAUAUUACGAGCU	-3.54 ± 0.34	-2.35 ± 0.45
CCAGAGCAAUAUUACGAGUU	-1.94 ± 0.14	-2.9 ± 0.27
CCAGAGCAAUAUUACGAUCG	-0.986 ± 0.11	-0.589 ± 0.14
CCAGAGCAAUAUUACGAUUG	-1.42 ± 0.11	-0.92 ± 0.14
CCAGAGCAAUAUUACGCGUU	-4.06 ± 0.23	-2.65 ± 0.18
CCAGAGCAAUAUUACGGAUC	-1.77 ± 0.32	–
CCAGAGCAAUAUUACGGCCG	-1.72 ± 0.16	-0.276 ± 0.31
CCAGAGCAAUAUUACGGCCU	-2.77 ± 0.13	-1.27 ± 0.17
CCAGAGCAAUAUUACGGCGC	-3.67 ± 0.25	-2 ± 0.26
CCAGAGCAAUAUUACGGCGG	-3.72 ± 0.18	-1.92 ± 0.24
CCAGAGCAAUAUUACGGGAG	-3.51 ± 0.23	-3.55 ± 0.3
CCAGAGCAAUAUUACGGUUA	-2.7 ± 0.18	-2.01 ± 0.25
CCAGAGCAAUAUUACGGUUU	-4.44 ± 0.39	-3.07 ± 0.32

— the supplement of paper PMC7877785
